Experimental findings from paper PMC12102759 (2025) are described below.

B1: CBL peptide 538-553 (E3 ubiquitin-protein ligase CBL), 16-mer library wild type / YES SH3 (YES1 SH3 domain, residues 90-152) (parent complex)
chain 1: TLRDLPPPPPPDRPYS
chain 2: not shown

In this experiment the parent is B1. Kind of experiment: proteomic peptide phage display deep mutational scan (ProP-PD DMS): M13 P8 16-mer library selected against immobilised GST-tagged bait for four days (rounds), NGS of the eluted pools per day and pseudo-replica; bait immobilised on MaxiSorp plates (10 µg), library pre-cleared on GST, 2 h binding at 4 °C, five washes; one round per day, days 1-4; value from days 2 and 3.
As for chain 1 D12T, the screen value is 0.00128 average fractional NGS count over selection days 2 and 3 (reads of this peptide / all reads for the bait, averaged over ….

In the case of chain 1 D12M, the screen value is 0.00124 average fractional NGS count over selection days 2 and 3 (reads of this peptide / all reads for the bait, averaged over ….

In the case of chain 1 D12N, the screen value is 0.000102 average fractional NGS count over selection days 2 and 3 (reads of this peptide / all reads for the bait, averaged over ….

Take chain 1 D12K: the screen value was 0.00012 average fractional NGS count over selection days 2 and 3 (reads of this peptide / all reads for the bait, averaged over ….

In the case of chain 1 D12Y, the screen value was 0.00156 average fractional NGS count over selection days 2 and 3 (reads of this peptide / all reads for the bait, averaged over ….

Regarding chain 1 D12Q, the screen value was 0.00108 average fractional NGS count over selection days 2 and 3 (reads of this peptide / all reads for the bait, averaged over ….

As for chain 1 D12V, the screen value was 0.00115 average fractional NGS count over selection days 2 and 3 (reads of this peptide / all reads for the bait, averaged over ….

Regarding chain 1 P14A, the screen value was 0.000568 average fractional NGS count over selection days 2 and 3 (reads of this peptide / all reads for the bait, averaged over ….

Consider chain 1 P14L, for which the screen value is 0.00213 average fractional NGS count over selection days 2 and 3 (reads of this peptide / all reads for the bait, averaged over ….

Regarding chain 1 P14W, the screen value was 0.00023 average fractional NGS count over selection days 2 and 3 (reads of this peptide / all reads for the bait, averaged over ….

As for chain 1 P14T, the screen value is 0.0012 average fractional NGS count over selection days 2 and 3 (reads of this peptide / all reads for the bait, averaged over ….

With chain 1 P14G, the screen value was 0.000593 average fractional NGS count over selection days 2 and 3 (reads of this peptide / all reads for the bait, averaged over ….

For the variant chain 1 P14V, the screen value was 0.0011 average fractional NGS count over selection days 2 and 3 (reads of this peptide / all reads for the bait, averaged over ….

For the variant chain 1 P14M, the screen value was 0.00532 average fractional NGS count over selection days 2 and 3 (reads of this peptide / all reads for the bait, averaged over ….

As for chain 1 P14H, the screen value was 0.00144 average fractional NGS count over selection days 2 and 3 (reads of this peptide / all reads for the bait, averaged over ….

For the variant chain 1 P14Y, the screen value is 0.00118 average fractional NGS count over selection days 2 and 3 (reads of this peptide / all reads for the bait, averaged over ….

Take chain 1 P14E: the screen value was 0.000212 average fractional NGS count over selection days 2 and 3 (reads of this peptide / all reads for the bait, averaged over ….

As to chain 1 L5V, the screen value is 6.39e-05 average fractional NGS count over selection days 2 and 3 (reads of this peptide / all reads for the bait, averaged over ….

Take chain 1 L5F: the screen value is 6.9e-05 average fractional NGS count over selection days 2 and 3 (reads of this peptide / all reads for the bait, averaged over ….

In the case of chain 1 P8T, the screen value was 0.000116 average fractional NGS count over selection days 2 and 3 (reads of this peptide / all reads for the bait, averaged over ….

As to chain 1 P8L, the screen value is 0.000561 average fractional NGS count over selection days 2 and 3 (reads of this peptide / all reads for the bait, averaged over ….

With chain 1 P8F, the screen value is 5.53e-05 average fractional NGS count over selection days 2 and 3 (reads of this peptide / all reads for the bait, averaged over ….

Regarding chain 1 P8E, the screen value is 0.0001 average fractional NGS count over selection days 2 and 3 (reads of this peptide / all reads for the bait, averaged over ….

Consider chain 1 P8I, for which the screen value is 0.000407 average fractional NGS count over selection days 2 and 3 (reads of this peptide / all reads for the bait, averaged over ….

For chain 1 P8Y, the screen value was 0.00011 average fractional NGS count over selection days 2 and 3 (reads of this peptide / all reads for the bait, averaged over ….

Consider chain 1 P8M, for which the screen value was 0.000558 average fractional NGS count over selection days 2 and 3 (reads of this peptide / all reads for the bait, averaged over ….

Turning to chain 1 P8V, the screen value was 0.0024 average fractional NGS count over selection days 2 and 3 (reads of this peptide / all reads for the bait, averaged over ….

For the variant chain 1 P10T, the screen value is 0.00196 average fractional NGS count over selection days 2 and 3 (reads of this peptide / all reads for the bait, averaged over ….

For the variant chain 1 P10S, the screen value was 0.00132 average fractional NGS count over selection days 2 and 3 (reads of this peptide / all reads for the bait, averaged over ….

With chain 1 P10E, the screen value was 0.00012 average fractional NGS count over selection days 2 and 3 (reads of this peptide / all reads for the bait, averaged over ….

On to chain 1 P10L, for which the screen value is 0.000964 average fractional NGS count over selection days 2 and 3 (reads of this peptide / all reads for the bait, averaged over ….

Regarding chain 1 P10Q, the screen value was 0.000423 average fractional NGS count over selection days 2 and 3 (reads of this peptide / all reads for the bait, averaged over ….

As to chain 1 P10R, the screen value is 0.000614 average fractional NGS count over selection days 2 and 3 (reads of this peptide / all reads for the bait, averaged over ….

As to chain 1 P10M, the screen value was 0.000512 average fractional NGS count over selection days 2 and 3 (reads of this peptide / all reads for the bait, averaged over ….

For the variant chain 1 P10H, the screen value was 0.00108 average fractional NGS count over selection days 2 and 3 (reads of this peptide / all reads for the bait, averaged over ….

As for chain 1 P10F, the screen value was 0.0021 average fractional NGS count over selection days 2 and 3 (reads of this peptide / all reads for the bait, averaged over ….

As for chain 1 P10Y, the screen value is 0.00108 average fractional NGS count over selection days 2 and 3 (reads of this peptide / all reads for the bait, averaged over ….

In the case of chain 1 P10A, the screen value is 0.000136 average fractional NGS count over selection days 2 and 3 (reads of this peptide / all reads for the bait, averaged over ….

As for chain 1 S16G, the screen value is 0.000561 average fractional NGS count over selection days 2 and 3 (reads of this peptide / all reads for the bait, averaged over ….

For chain 1 S16R, the screen value is 0.000301 average fractional NGS count over selection days 2 and 3 (reads of this peptide / all reads for the bait, averaged over ….

On to chain 1 S16D, for which the screen value is 0.00258 average fractional NGS count over selection days 2 and 3 (reads of this peptide / all reads for the bait, averaged over ….

As for chain 1 S16P, the screen value was 0.00387 average fractional NGS count over selection days 2 and 3 (reads of this peptide / all reads for the bait, averaged over ….

In the case of chain 1 S16M, the screen value is 0.00227 average fractional NGS count over selection days 2 and 3 (reads of this peptide / all reads for the bait, averaged over ….

On to chain 1 S16F, for which the screen value was 0.00399 average fractional NGS count over selection days 2 and 3 (reads of this peptide / all reads for the bait, averaged over ….

On to chain 1 S16Q, for which the screen value was 9.78e-05 average fractional NGS count over selection days 2 and 3 (reads of this peptide / all reads for the bait, averaged over ….

Consider chain 1 S16K, for which the screen value is 0.00025 average fractional NGS count over selection days 2 and 3 (reads of this peptide / all reads for the bait, averaged over ….

On to chain 1 S16I, for which the screen value is 0.00716 average fractional NGS count over selection days 2 and 3 (reads of this peptide / all reads for the bait, averaged over ….

In the case of chain 1 S16Y, the screen value was 0.000405 average fractional NGS count over selection days 2 and 3 (reads of this peptide / all reads for the bait, averaged over ….

In the case of chain 1 S16E, the screen value is 0.000858 average fractional NGS count over selection days 2 and 3 (reads of this peptide / all reads for the bait, averaged over ….

chain 1 S16V: the screen value is 0.00134 average fractional NGS count over selection days 2 and 3 (reads of this peptide / all reads for the bait, averaged over ….

As for chain 1 S16H, the screen value is 0.00402 average fractional NGS count over selection days 2 and 3 (reads of this peptide / all reads for the bait, averaged over ….

Consider chain 1 L2W, for which the screen value is 0.00229 average fractional NGS count over selection days 2 and 3 (reads of this peptide / all reads for the bait, averaged over ….

For chain 1 L2E, the screen value was 0.00558 average fractional NGS count over selection days 2 and 3 (reads of this peptide / all reads for the bait, averaged over ….

With chain 1 L2N, the screen value is 0.00027 average fractional NGS count over selection days 2 and 3 (reads of this peptide / all reads for the bait, averaged over ….

Take chain 1 L2T: the screen value is 0.00177 average fractional NGS count over selection days 2 and 3 (reads of this peptide / all reads for the bait, averaged over ….

For the variant chain 1 L2P, the screen value is 0.00136 average fractional NGS count over selection days 2 and 3 (reads of this peptide / all reads for the bait, averaged over ….

For the variant chain 1 L2I, the screen value was 0.000452 average fractional NGS count over selection days 2 and 3 (reads of this peptide / all reads for the bait, averaged over ….

As for chain 1 L2D, the screen value was 0.000976 average fractional NGS count over selection days 2 and 3 (reads of this peptide / all reads for the bait, averaged over ….

For chain 1 L2K, the screen value was 0.0014 average fractional NGS count over selection days 2 and 3 (reads of this peptide / all reads for the bait, averaged over ….

In the case of chain 1 L2V, the screen value is 0.00022 average fractional NGS count over selection days 2 and 3 (reads of this peptide / all reads for the bait, averaged over ….

Take chain 1 L2F: the screen value was 0.00251 average fractional NGS count over selection days 2 and 3 (reads of this peptide / all reads for the bait, averaged over ….

For the variant chain 1 L2G, the screen value is 0.000674 average fractional NGS count over selection days 2 and 3 (reads of this peptide / all reads for the bait, averaged over ….

On to chain 1 L2M, for which the screen value is 0.00216 average fractional NGS count over selection days 2 and 3 (reads of this peptide / all reads for the bait, averaged over ….

For chain 1 L2Q, the screen value is 0.00095 average fractional NGS count over selection days 2 and 3 (reads of this peptide / all reads for the bait, averaged over ….

Consider chain 1 L2R, for which the screen value was 0.000311 average fractional NGS count over selection days 2 and 3 (reads of this peptide / all reads for the bait, averaged over ….

For the variant chain 1 Y15W, the screen value was 0.000273 average fractional NGS count over selection days 2 and 3 (reads of this peptide / all reads for the bait, averaged over ….

Regarding chain 1 Y15F, the screen value was 0.00101 average fractional NGS count over selection days 2 and 3 (reads of this peptide / all reads for the bait, averaged over ….

Turning to chain 1 Y15S, the screen value was 0.000415 average fractional NGS count over selection days 2 and 3 (reads of this peptide / all reads for the bait, averaged over ….

Take chain 1 Y15V: the screen value is 0.00865 average fractional NGS count over selection days 2 and 3 (reads of this peptide / all reads for the bait, averaged over ….

For the variant chain 1 Y15L, the screen value is 0.00132 average fractional NGS count over selection days 2 and 3 (reads of this peptide / all reads for the bait, averaged over ….

With chain 1 Y15I, the screen value is 0.000521 average fractional NGS count over selection days 2 and 3 (reads of this peptide / all reads for the bait, averaged over ….

On to chain 1 Y15M, for which the screen value was 0.000526 average fractional NGS count over selection days 2 and 3 (reads of this peptide / all reads for the bait, averaged over ….

For chain 1 Y15N, the screen value is 7.8e-05 average fractional NGS count over selection days 2 and 3 (reads of this peptide / all reads for the bait, averaged over ….

Take chain 1 Y15R: the screen value was 0.000143 average fractional NGS count over selection days 2 and 3 (reads of this peptide / all reads for the bait, averaged over ….

chain 1 Y15K: the screen value was 0.000227 average fractional NGS count over selection days 2 and 3 (reads of this peptide / all reads for the bait, averaged over ….
